Reference: patent US20030199423A1

Columns and labels:
[1] = target: CD18-independent counterreceptor for ICAM-R on Jurkat cells; experiment: inhibition of Jurkat cell adhesion to coated soluble ICAM-R, peptide 1-2 mg/ml
[2] = target: T1, soluble human ICAM-R (human), P32942; experiment: blocking of biotinylated murine ICR-8.1 binding to ICAM-R; competitor murine ICR-8.1
T1 chain: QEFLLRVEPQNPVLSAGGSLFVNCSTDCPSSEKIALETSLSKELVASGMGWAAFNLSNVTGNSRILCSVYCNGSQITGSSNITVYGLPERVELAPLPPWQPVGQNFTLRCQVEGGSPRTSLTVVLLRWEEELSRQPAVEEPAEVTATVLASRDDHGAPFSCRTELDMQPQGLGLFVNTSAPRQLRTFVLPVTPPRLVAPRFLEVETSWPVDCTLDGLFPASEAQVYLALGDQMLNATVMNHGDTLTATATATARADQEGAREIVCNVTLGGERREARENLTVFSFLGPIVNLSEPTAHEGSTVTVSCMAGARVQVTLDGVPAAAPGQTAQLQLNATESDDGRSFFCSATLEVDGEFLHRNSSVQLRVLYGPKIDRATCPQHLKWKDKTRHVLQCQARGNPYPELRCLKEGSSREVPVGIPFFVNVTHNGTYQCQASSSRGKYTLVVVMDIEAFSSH

[3] = target: T1, soluble human ICAM-R (human), P32942; experiment: ELISA on coated baculovirus soluble ICAM-R

Binder	% Inhibition [1]	fold less well competing than murine ICR-8.1 [2]	fold improvement in binding over the other recombinant ICR-8.1 antibodies [3]
DGQST [ICAM-1 peptide (DGQST), residues 70-74]	9%	–	–
GDQML [ICAM-R domain 3 peptide (GDQML), residues 230-234]	36%	–	–
recombinant ICR-8.1 antibody miHuVHI/MuVK (antibody, modifications not checked) chain 1: QIQLVQSGAEVKKPGASVKVSCKASGYTFTDCIILWVRQAPGQGLEWMGKINPYFGTTTYAQKFQGRVTITADTSTSTAYMELSSLRSEDTAVYYCARKEAYPDAMDYWGQGTLVTVSS chain 2: DAVMTQTPLSLPVSLGDQASISCRSSQSLVHSNGDTYLHWYLQKPGQSPQLLIYKVSNRFSGVPDRFSGSGSGTDFTLKLSRVEAEDLGVYFCSQSTHVPYTFGGGTKLEIK	–	2 fold	2 fold
EKIALET [ICAM-R peptide, residues 32-38]	10%	–	–
NGSQI [ICAM-R domain 1 peptide (NGSQI), residues 72-76]	17%	–	–
GDQRL [ICAM-1 peptide (GDQRL), residues 228-232]	22%	–	–
GERREA [ICAM-R peptide, residues 271-276]	11%	–	–
